# Measurements from paper PMC5130228.
# Biological target: GST-tagged Cdc42, nucleotide-free (human) (UniProt P60953)
# Assay: pull-down
# Sequence of UniProt P60953 (P60953 whole entry): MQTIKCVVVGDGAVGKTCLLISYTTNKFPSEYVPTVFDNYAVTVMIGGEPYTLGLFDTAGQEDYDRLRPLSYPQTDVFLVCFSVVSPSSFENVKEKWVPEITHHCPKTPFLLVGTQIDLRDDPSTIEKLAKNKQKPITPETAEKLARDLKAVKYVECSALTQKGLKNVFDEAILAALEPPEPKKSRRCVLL
substance,measurement,value
MBP-Map residues 37–203 (from UniProt P0AE18 37-203) (domain or fragment),stoichiometry N,1
